Drawing on the supplement of paper PMC10567573, this text covers protein stability index for 53 sequences.

± gives the standard deviation.

The data set can be described thus: protein stability index of a GFP-peptide fusion (GPS, HEK-293T) (PSI 1-6); higher = more stable. The note with it: c terminus: a fixed tail appended.
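Further: 24-mer peptide tiles fused after GFP, lentivirally expressed, FACS-sorted into six equal bins by GFP/DsRed ratio, decoded by Illumina sequencing, PSI is the read-weighted mean bin number.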

DARDEELEKDTMDNWDEKKLEEVV [ZC3H15]: the protein stability index is 5.45 ± 0.4 (treatment: DMSO) and 5.21 ± 0.25 (treatment: MLN4924 1 uM, 8 h).

Regarding DARDGQSRTVRQFQFTDWPEQGVP [PTPRD], the protein stability index is, setting by setting: (treatment: DMSO) 4.08 ± 0.61; (treatment: MLN4924 1 uM, 8 h) 4.32 ± 0.41.

For the sequence DAWKRPDALPGQSKRLAVPCKLEK [TLE6], the protein stability index worked out at 4.2 ± 0.17 (treatment: DMSO) and 4.28 ± 0.2 (treatment: MLN4924 1 uM, 8 h).

With DDKHYGGFTNKQLQSGQEYVFFVL [PTPRD], the protein stability index turned out to be 2.64 ± 0.53 (treatment: DMSO) and 2.55 ± 0.43 (treatment: MLN4924 1 uM, 8 h).

With DEEVVATAGDRLTEFRKGAQSLPG [IRX6], the protein stability index came out at 5.12 ± 0.2 (treatment: DMSO) and 5.19 ± 0.22 (treatment: MLN4924 1 uM, 8 h).

As for DERRDAEERASLAGNRNSMVIHIP [KCNK9], the protein stability index by setting is: (treatment: DMSO) 4.24 ± 0.08; (treatment: MLN4924 1 uM, 8 h) 4.51 ± 0.086.

For the sequence DFKNPIIEKYLRRQLTKPRPVILD [OAS1], the protein stability index (treatment: DMSO) is 2.46 ± 0.11 and the protein stability index (treatment: MLN4924 1 uM, 8 h) came to 2.36 ± 0.2.

Take DFSMAEALNQEFLATRSNEKQELQ [PRPH]: the protein stability index was determined as 5.05 ± 0.19 (treatment: DMSO) and 4.95 ± 0.27 (treatment: MLN4924 1 uM, 8 h).

Regarding DIDGDVLVFLELAQFHCAYQLADW [RHOBTB2], the protein stability index by setting is: (treatment: DMSO) 2.76 ± 0.47; (treatment: MLN4924 1 uM, 8 h) 3.23 ± 0.62.

In the case of DIDQMFSTLLGEMDLLTQSLGVDT [APBB1IP], the protein stability index runs as follows: (treatment: DMSO) 3.16 ± 0.5; (treatment: MLN4924 1 uM, 8 h) 2.76 ± 0.41.

Take DIGKGAFSVVRRCVKLCTGHEYAA [CAMK2B]: the protein stability index is, setting by setting: (treatment: DMSO) 1.93 ± 0.2; (treatment: MLN4924 1 uM, 8 h) 2.06 ± 0.37.

For DISMEIDSPENMMRHIRFLKNEVE [CCDC6], the protein stability index was 4.09 ± 0.39 (treatment: DMSO) and 3.86 ± 0.33 (treatment: MLN4924 1 uM, 8 h).

As for DKLLKHMIIEHKIVIADVKLVADF [ZNF277], the protein stability index reads like this: (treatment: DMSO) 3.07 ± 0.33; (treatment: MLN4924 1 uM, 8 h) 2.82 ± 0.72.

For the sequence DKRNYPSLELDKMAHGYGEESEEE [CHGB], the protein stability index is 5.63 ± 0.37 (treatment: DMSO) and 5.66 ± 0.19 (treatment: MLN4924 1 uM, 8 h).

As for DPDEVARRWGKRKNKPKMNYEKLS [ETS1], the protein stability index was 4.51 ± 0.24 (treatment: DMSO) and 4.22 ± 0.35 (treatment: MLN4924 1 uM, 8 h).

On to DPFVCRLRHLSPTPSEEHMKNKNN [OR4A15], for which the protein stability index runs as follows: (treatment: DMSO) 4.73 ± 0.11; (treatment: MLN4924 1 uM, 8 h) 4.66 ± 0.1.

Consider DPGLWSRLCRLAGASSPAAYDEAL [ZSWIM9], for which the protein stability index came out at 2.82 ± 0.15 (treatment: DMSO) and 2.78 ± 0.24 (treatment: MLN4924 1 uM, 8 h).

As for DPVELRRLNFQTPGMASHPPIPIL [PTPRD], the protein stability index is, setting by setting: (treatment: DMSO) 2.91 ± 0.19; (treatment: MLN4924 1 uM, 8 h) 3.04 ± 0.33.

Consider DSDIPEIPPSSDRTPEILKKALSG [CDS1], for which the protein stability index was 5.2 ± 0.21 (treatment: DMSO) and 5.39 ± 0.19 (treatment: MLN4924 1 uM, 8 h).

On to DSEFSMQEPMVPAKLGTQAEKDRR [PPFIA4], for which the protein stability index runs as follows: (treatment: DMSO) 4.9 ± 0.77; (treatment: MLN4924 1 uM, 8 h) 5.646 ± 0.045.

As to DSGDSKDIRLTLMEEVLLLGLKDK [GOLPH3L], the protein stability index is, setting by setting: (treatment: DMSO) 3.24 ± 0.19; (treatment: MLN4924 1 uM, 8 h) 3.25 ± 0.34.

With DSGTCPEVDEEGFTVRPDVTQNST [FCHO1], the protein stability index (treatment: DMSO) worked out at 5.43 ± 0.28 and the protein stability index (treatment: MLN4924 1 uM, 8 h) is 5.4 ± 0.15.

As for DSSEEESHRVVLRPRGKERHKSGV [LYSMD4], the protein stability index by setting is: (treatment: DMSO) 5.21 ± 0.28; (treatment: MLN4924 1 uM, 8 h) 5.14 ± 0.11.

In the case of DTRRLITKPQNLNDAYGPPSNFLE [SNX3], the protein stability index came to 3.69 ± 0.17 (treatment: DMSO) and 3.88 ± 0.17 (treatment: MLN4924 1 uM, 8 h).

In turn, DTTELSSAERYNPRTNQWSPVVAM [KLHL20] returned a protein stability index (treatment: DMSO) of 3.5 ± 0.17 and a protein stability index (treatment: MLN4924 1 uM, 8 h) of 3.7 ± 0.19.

Take DVQSMPKTGILILILSIIFIEGYC [MAGEA10]: the protein stability index (treatment: DMSO) amounted to 2.86 ± 0.97 and the protein stability index (treatment: MLN4924 1 uM, 8 h) is 2.88 ± 1.2.

As to DVVEDYKKRYEEEINKRTAAENEF [KRT71], the protein stability index reads like this: (treatment: DMSO) 5.13 ± 0.093; (treatment: MLN4924 1 uM, 8 h) 5.37 ± 0.3.

Take DWLRRPLGEDNQPETQLFWDKEPW [TLE6]: the protein stability index reads like this: (treatment: DMSO) 3.35 ± 0.34; (treatment: MLN4924 1 uM, 8 h) 3.22 ± 0.43.

In the case of DYVHISSKPCDLHCTTVDGQRQLM [ADAMTSL2], the protein stability index reads like this: (treatment: DMSO) 3.45 ± 0.29; (treatment: MLN4924 1 uM, 8 h) 3.44 ± 0.23.

Sequence EAEADEEADPPASDLPTPQAIEPQ [SNX8] displayed a protein stability index (treatment: DMSO) of 5.62 ± 0.17 and a protein stability index (treatment: MLN4924 1 uM, 8 h) of 5.63 ± 0.26.

EALITDPDEMRMQALLIRERILGP [FEM1A] yielded a protein stability index (treatment: DMSO) of 3.56 ± 0.26 and a protein stability index (treatment: MLN4924 1 uM, 8 h) of 3.45 ± 0.26.

In the case of EASQLRRLNIKKDDEFFHFVLLCF [TMEM40], the protein stability index is, setting by setting: (treatment: DMSO) 2.15 ± 0.25; (treatment: MLN4924 1 uM, 8 h) 2.22 ± 0.26.

For the sequence EAVPEGPDGGGPWLEDEPGRGAQG [ZSWIM9], the protein stability index reads like this: (treatment: DMSO) 5.45 ± 0.52; (treatment: MLN4924 1 uM, 8 h) 5.56 ± 0.35.

On to EDLAQKLNLEEDRIQIWFQNRRAK [HESX1], for which the protein stability index amounted to 4.12 ± 0.55 (treatment: DMSO) and 4.11 ± 0.47 (treatment: MLN4924 1 uM, 8 h).

On to EDMLWDDLLHGPECRSSVTSDSEG [PHTF1], for which the protein stability index by setting is: (treatment: DMSO) 5.07 ± 0.3; (treatment: MLN4924 1 uM, 8 h) 5.16 ± 0.16.

Regarding EDPDYYGQEIWSREPYYARPEPEL [CPXM2], for the setting “treatment: DMSO”, the protein stability index turned out to be 4.38 ± 0.11.

For the sequence EEAEELAKEMSVPFYTSRIDEVLL [GFOD1], the protein stability index is, setting by setting: (treatment: DMSO) 3.83 ± 0.24; (treatment: MLN4924 1 uM, 8 h) 4.11 ± 0.33.

With EEANADLEVKIHDWYQKQTPTSPE [KRT15], the protein stability index (treatment: DMSO) was found to be 5.33 ± 0.23 and the protein stability index (treatment: MLN4924 1 uM, 8 h) is 5.29 ± 0.16.

Consider EEDNDDAKILPSPVQGSSEDNLSL [DRICH1], for which the protein stability index amounted to 5.57 ± 0.25 (treatment: DMSO) and 5.55 ± 0.17 (treatment: MLN4924 1 uM, 8 h).

For EELEEALEVERQENEQRRLFIQKE [MNAT1], the protein stability index is 5.05 ± 0.24 (treatment: DMSO) and 5 ± 0.16 (treatment: MLN4924 1 uM, 8 h).

As to EEPTERGNLEVGEPQSEPVRVLDM [FBXO34], the protein stability index is 5.34 ± 0.17 (treatment: DMSO) and 5.5 ± 0.16 (treatment: MLN4924 1 uM, 8 h).

As to EEQRVEQQTKLEAEKLKVQALKDR [LSM1], the protein stability index turned out to be 5.55 ± 0.28 (treatment: DMSO) and 5.36 ± 0.12 (treatment: MLN4924 1 uM, 8 h).

Take EESYYCRCHRGYTLDPNGKTCSRV [MATN2]: the protein stability index stood at 2.82 ± 0.53 (treatment: DMSO) and 3.09 ± 0.55 (treatment: MLN4924 1 uM, 8 h).

As for EEVAKAVLEQEETAAASRERQEEQ [EPB41L3], the protein stability index reads like this: (treatment: DMSO) 5.71 ± 0.078; (treatment: MLN4924 1 uM, 8 h) 5.63 ± 0.19.

As for EFMKDRLYFATLRNRPKSTVNTHY [CDC14A], the protein stability index came to 2.11 ± 0.23 (treatment: DMSO) and 2.17 ± 0.59 (treatment: MLN4924 1 uM, 8 h).

Turning to EFSTSLFSGSLEPVACGSVLSEGS [SRPK2], the protein stability index reads like this: (treatment: DMSO) 3.98 ± 0.19; (treatment: MLN4924 1 uM, 8 h) 4.04 ± 0.26.

In the case of EGAQLKKVEQNSRPVSCSGRDALL [WASL], the protein stability index worked out at 4.53 ± 0.39 (treatment: DMSO) and 4.72 ± 0.48 (treatment: MLN4924 1 uM, 8 h).

Take EGDATRDPGPEPEEEPGVRNGMAS [PSD2]: the protein stability index (treatment: DMSO) was 5.7 ± 0.16 and the protein stability index (treatment: MLN4924 1 uM, 8 h) came to 5.38 ± 0.34.

EGGIFTSPNYPSKYPPDRECIYII [NETO1] had a protein stability index (treatment: DMSO) of 2.76 ± 0.94 and a protein stability index (treatment: MLN4924 1 uM, 8 h) of 2.95 ± 0.7.

For EGSDYINASFIDGYRQQKAYIATQ [PTPRD], the protein stability index runs as follows: (treatment: DMSO) 3.18 ± 0.25; (treatment: MLN4924 1 uM, 8 h) 3.34 ± 0.23.

As for EGSPRNLGTPTSSTPRPSITPTKK [C2CD2L], the protein stability index by setting is: (treatment: DMSO) 5.35 ± 0.19; (treatment: MLN4924 1 uM, 8 h) 5.34 ± 0.17.

On to EHPGGEEVLREQAGGDATENFEDV [CYB5A], for which the protein stability index worked out at 5.47 ± 0.2 (treatment: DMSO) and 5.54 ± 0.24 (treatment: MLN4924 1 uM, 8 h).

Take EIDTQGRHLAHSMLQRAIAYQHSG [C10orf62]: the protein stability index runs as follows: (treatment: DMSO) 2.91 ± 0.24; (treatment: MLN4924 1 uM, 8 h) 3.15 ± 0.28.
